In article PMC9482650, “Quantitative fragmentomics allow affinity mapping of interactomes” (Nature Communications, 2022):

Key:
Experiment in all cases: holdup assay
Parameters in all cases: key: below the threshold = too weak to quantify, mostly under pKd 3.1 to 4
[1] = molecular target: T1, APBA1_2, Q02410
T1 sequence (Q02410 742-832, limits assumed, looked up): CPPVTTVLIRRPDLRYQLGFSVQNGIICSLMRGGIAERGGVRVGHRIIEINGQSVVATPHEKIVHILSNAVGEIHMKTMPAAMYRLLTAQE

[2] = molecular target: CASK, O14936
[3] = molecular target: DLG1_1, Q12959
[4] = molecular target: DLG4_3, P78352
[5] = molecular target: FRMPD2_1, Q68DX3
[6] = molecular target: FRMPD2_2, Q68DX3
[7] = molecular target: FRMPD2_3, Q68DX3
[8] = molecular target: GIPC2, Q8TF65
[9] = molecular target: GORASP1, Q9BQQ3
[10] = molecular target: T2, GRIP1_3, Q9Y3R0
T2 sequence (Q9Y3R0 247-346, limits assumed, looked up): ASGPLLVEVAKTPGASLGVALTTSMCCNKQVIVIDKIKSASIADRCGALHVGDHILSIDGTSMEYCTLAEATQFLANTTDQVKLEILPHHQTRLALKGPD

[11] = molecular target: T3, GRIP1_4, Q9Y3R0
T3 sequence (Q9Y3R0 467-571, limits assumed, looked up): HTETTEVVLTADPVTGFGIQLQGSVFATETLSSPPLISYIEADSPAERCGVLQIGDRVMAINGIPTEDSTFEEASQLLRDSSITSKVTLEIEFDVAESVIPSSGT

[12] = molecular target: GRIP2_6, Q9C0E4
[13] = molecular target: GRIP2_7, Q9C0E4
[14] = molecular target: Inadl_2, Q8NI35
[15] = molecular target: LAP2, Q96RT1
[16] = molecular target: T4, LIN7B, Q9HAP6
T4 sequence (Q9HAP6 88-185, limits assumed, looked up): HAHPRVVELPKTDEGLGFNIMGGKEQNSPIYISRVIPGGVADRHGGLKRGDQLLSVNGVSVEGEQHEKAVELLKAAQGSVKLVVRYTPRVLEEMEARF

[17] = molecular target: LNX1_1, Q8TBB1
[18] = molecular target: LNX1_3, Q8TBB1
[19] = molecular target: MAGI1_2, Q96QZ7
[20] = molecular target: MAGI2_4, Q86UL8
[21] = molecular target: T5, MPP6, Q9NZW5
T5 sequence (Q9NZW5 125-219, limits assumed, looked up): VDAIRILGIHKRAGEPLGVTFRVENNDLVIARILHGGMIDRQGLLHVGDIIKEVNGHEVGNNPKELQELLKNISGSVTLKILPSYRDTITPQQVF

[22] = molecular target: T6, MPP7, Q5T2T1
T6 sequence (Q5T2T1 134-230, limits assumed, looked up): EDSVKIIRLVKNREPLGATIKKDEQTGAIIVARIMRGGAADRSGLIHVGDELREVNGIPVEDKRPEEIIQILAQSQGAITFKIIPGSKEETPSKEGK

[23] = molecular target: T7, NHERF3_4, Q5T2W1
T7 sequence (Q5T2W1 373-468, limits assumed, looked up): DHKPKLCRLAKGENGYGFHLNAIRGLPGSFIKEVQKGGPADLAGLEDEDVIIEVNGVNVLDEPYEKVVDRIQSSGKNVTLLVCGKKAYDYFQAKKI

[24] = molecular target: T8, PCLO, Q9Y6V0
T8 sequence (Q9Y6V0 4491-4600, limits assumed, looked up): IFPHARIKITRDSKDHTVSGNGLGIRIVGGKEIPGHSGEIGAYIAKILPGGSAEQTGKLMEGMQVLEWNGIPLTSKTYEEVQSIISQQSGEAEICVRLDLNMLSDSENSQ

[25] = molecular target: T9, PDZD2_2, O15018
T9 sequence (O15018 329-429, limits assumed, looked up): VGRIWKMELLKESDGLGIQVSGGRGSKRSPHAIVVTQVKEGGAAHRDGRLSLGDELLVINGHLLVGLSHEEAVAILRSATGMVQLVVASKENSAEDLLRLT

[26] = molecular target: T10, PDZD7_3, Q9H5P4
T10 sequence (Q9H5P4 857-944, limits assumed, looked up): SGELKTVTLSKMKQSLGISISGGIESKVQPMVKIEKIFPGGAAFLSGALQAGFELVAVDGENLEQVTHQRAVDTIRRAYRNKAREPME

[27] = molecular target: T11, RADIL, Q96JH8
T11 sequence (Q96JH8 971-1071, limits assumed, looked up): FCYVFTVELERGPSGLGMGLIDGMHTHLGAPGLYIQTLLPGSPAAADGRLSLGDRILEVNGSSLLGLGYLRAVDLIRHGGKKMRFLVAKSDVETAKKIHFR

[28] = plain residues with an end cap or a label only (N-terminal biotin on a linker: ado-ado)
[29] = plain residues with an end cap or a label only (N-terminal biotin on a linker: ttds)

Chain of MAGI2_4, Q86UL8 (Q86UL8 772-865): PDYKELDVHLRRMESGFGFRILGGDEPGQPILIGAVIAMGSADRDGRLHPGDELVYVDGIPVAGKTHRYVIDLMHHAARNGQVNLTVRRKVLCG
Chain of CASK, O14936 (O14936 487-570): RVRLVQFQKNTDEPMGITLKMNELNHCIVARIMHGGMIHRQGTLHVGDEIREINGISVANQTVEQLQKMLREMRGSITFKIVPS
Chain of DLG4_3, P78352 (P78352 306-403): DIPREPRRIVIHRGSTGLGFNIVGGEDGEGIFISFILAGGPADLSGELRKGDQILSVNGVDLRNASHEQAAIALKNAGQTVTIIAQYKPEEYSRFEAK
Chain of LNX1_1, Q8TBB1 (Q8TBB1 261-371): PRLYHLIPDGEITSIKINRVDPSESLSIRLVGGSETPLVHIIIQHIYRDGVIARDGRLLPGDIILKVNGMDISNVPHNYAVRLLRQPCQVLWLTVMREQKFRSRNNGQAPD
Chain of FRMPD2_2, Q68DX3 (Q68DX3 944-1038): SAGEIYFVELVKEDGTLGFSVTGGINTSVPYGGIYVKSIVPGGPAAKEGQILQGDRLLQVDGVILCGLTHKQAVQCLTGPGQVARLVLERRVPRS
Chain of GORASP1, Q9BQQ3 (Q9BQQ3 1-208): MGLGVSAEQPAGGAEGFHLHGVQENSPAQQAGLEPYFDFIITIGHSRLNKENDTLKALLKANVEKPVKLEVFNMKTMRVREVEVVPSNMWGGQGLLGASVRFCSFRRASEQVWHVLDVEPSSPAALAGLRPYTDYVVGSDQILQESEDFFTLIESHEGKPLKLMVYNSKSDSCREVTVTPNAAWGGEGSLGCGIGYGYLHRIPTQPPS
Chain of GRIP2_6, Q9C0E4 (Q9C0E4 648-740): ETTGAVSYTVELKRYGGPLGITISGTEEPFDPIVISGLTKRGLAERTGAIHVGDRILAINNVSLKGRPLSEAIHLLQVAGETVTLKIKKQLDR
Chain of Inadl_2, Q8NI35 (Q8NI35 238-335): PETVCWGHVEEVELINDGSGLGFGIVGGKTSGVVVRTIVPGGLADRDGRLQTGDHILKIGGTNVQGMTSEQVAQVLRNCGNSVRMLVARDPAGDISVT
Chain of LAP2, Q96RT1 (Q96RT1 other isoform, or with tags, fused parts or gaps): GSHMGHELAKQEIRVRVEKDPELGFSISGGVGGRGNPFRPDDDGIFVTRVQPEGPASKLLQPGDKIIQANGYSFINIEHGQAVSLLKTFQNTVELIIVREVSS
Chain of GIPC2, Q8TF65 (Q8TF65 112-203): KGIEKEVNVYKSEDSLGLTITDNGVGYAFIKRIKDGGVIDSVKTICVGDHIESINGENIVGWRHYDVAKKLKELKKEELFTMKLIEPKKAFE
Chain of FRMPD2_3, Q68DX3 (Q68DX3 1073-1166): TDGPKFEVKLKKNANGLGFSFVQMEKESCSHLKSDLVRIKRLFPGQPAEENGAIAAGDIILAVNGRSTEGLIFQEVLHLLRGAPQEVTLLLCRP
Chain of LNX1_3, Q8TBB1 (Q8TBB1 500-596): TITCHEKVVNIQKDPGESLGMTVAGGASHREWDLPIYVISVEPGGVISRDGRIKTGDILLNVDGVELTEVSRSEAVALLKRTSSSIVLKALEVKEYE
Chain of FRMPD2_1, Q68DX3 (Q68DX3 770-861): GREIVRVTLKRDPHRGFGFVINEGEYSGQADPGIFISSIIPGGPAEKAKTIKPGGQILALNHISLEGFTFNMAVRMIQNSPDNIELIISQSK
Chain of GRIP2_7, Q9C0E4 (Q9C0E4 934-1023): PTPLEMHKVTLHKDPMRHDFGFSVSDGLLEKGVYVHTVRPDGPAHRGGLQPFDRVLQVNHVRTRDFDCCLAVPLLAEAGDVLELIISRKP
Chain of MAGI1_2, Q96QZ7 (Q96QZ7 456-580): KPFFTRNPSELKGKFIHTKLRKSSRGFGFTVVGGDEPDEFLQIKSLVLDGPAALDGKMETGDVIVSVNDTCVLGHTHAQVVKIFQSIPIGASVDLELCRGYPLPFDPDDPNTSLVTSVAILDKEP

GFGEERESIL [KIDINS220, Q9ULH0]
pKd [1, 28]: below the threshold | pKd [2, 28]: below the threshold | pKd [3, 28]: below the threshold | pKd [4, 28]: below the threshold | pKd [5, 28]: below the threshold | pKd [6, 28]: below the threshold | pKd [7, 28]: below the threshold | pKd [8, 28]: 3.87 | pKd [9, 28]: below the threshold | pKd [10, 28]: below the threshold | pKd [11, 28]: below the threshold | pKd [12, 28]: below the threshold | pKd [13, 28]: below the threshold | pKd [14, 28]: below the threshold | pKd [15, 28]: below the threshold | pKd [16, 28]: below the threshold | pKd [17, 28]: 3.88 | pKd [18, 28]: below the threshold | pKd [19, 28]: below the threshold | pKd [20, 28]: below the threshold | pKd [21, 28]: below the threshold | pKd [22, 28]: below the threshold | pKd [23, 28]: below the threshold | pKd [24, 28]: below the threshold | pKd [25, 28]: 4.65 | pKd [26, 28]: 5.03 | pKd [27, 28]: 3.61

PKRPFVESNV [TANC2, Q9HCD6]
pKd [1, 29]: below the threshold | pKd [2, 29]: below the threshold | pKd [3, 29]: 4.31 | pKd [4, 29]: below the threshold | pKd [5, 29]: below the threshold | pKd [6, 29]: below the threshold | pKd [7, 29]: below the threshold | pKd [8, 29]: below the threshold | pKd [9, 29]: below the threshold | pKd [10, 29]: below the threshold | pKd [11, 29]: below the threshold | pKd [12, 29]: below the threshold | pKd [13, 29]: below the threshold | pKd [14, 29]: below the threshold | pKd [15, 29]: 4.74 | pKd [16, 29]: below the threshold | pKd [17, 29]: 3.57 | pKd [18, 29]: below the threshold | pKd [19, 29]: below the threshold | pKd [20, 29]: below the threshold | pKd [21, 29]: below the threshold | pKd [22, 29]: below the threshold | pKd [23, 29]: below the threshold | pKd [24, 29]: below the threshold | pKd [25, 29]: 4.52 | pKd [26, 29]: below the threshold | pKd [27, 29]: below the threshold

VNKVWDQSSV [CIT, O14578]
pKd [1, 29]: 3.49 | pKd [2, 29]: below the threshold | pKd [3, 29]: below the threshold | pKd [4, 29]: 3.62 | pKd [5, 29]: below the threshold | pKd [6, 29]: below the threshold | pKd [7, 29]: below the threshold | pKd [8, 29]: 3.51 | pKd [9, 29]: below the threshold | pKd [10, 29]: below the threshold | pKd [11, 29]: below the threshold | pKd [12, 29]: below the threshold | pKd [13, 29]: below the threshold | pKd [14, 29]: below the threshold | pKd [15, 29]: 4.04 | pKd [16, 29]: below the threshold | pKd [17, 29]: below the threshold | pKd [18, 29]: below the threshold | pKd [19, 29]: below the threshold | pKd [20, 29]: below the threshold | pKd [21, 29]: below the threshold | pKd [22, 29]: below the threshold | pKd [23, 29]: below the threshold | pKd [24, 29]: below the threshold | pKd [25, 29]: 4.86 | pKd [26, 29]: below the threshold | pKd [27, 29]: below the threshold
